Test results published in patent publication US8198236B2, “Methods and compositions for the treatment of cancer” (Washington University, priority 2007, dated 2012).

Columns and labels:
cytosolic β-catenin = assay: Cytosolic β-catenin level by western blotting in LRP6-transduced HT1080 cells; assay type: cell-based, human; details: 0.5 to 5 nM Mesd, 2 hours at 37° C.
Protocol: […] After washing in ice-cold PBS, cells were collected and homogenized in a glass Dounce homogenizer in buffer consisting of 100 mM Tris-HCl pH 7.4, 140 mM NaCl, 2 mM DTT, 2 mM PMSF, and 1× Complete™ protease inhibitors (500 μl/well). The homogenate was centrifuged for 10 minutes at 500 g, and the supernatant was further centrifuged at 100,000 g at 4° C. for 90 minutes. The resulting supernatant was designated the cytosolic fraction. The β-catenin levels were then examined by western blotting using β-catenin-specific antibody from Cell Signaling Technology. The immunoreactive proteins were detected using the ECL™ system (Amersham). Films showing immunoreactive bands were scanned with a Kodak Digital Science DC 120 Zoom Digital Camera and band intensities were analyzed with Kodak Digital Science1D Image Analysis Software.
β-catenin is a key molecule in the Wnt/β-catenin signaling pathway. A cytosolic pool of β-catenin interacts with DNA-binding proteins and participates in Wnt signal transduction (Hinck, L., J. Cell Biol. 125: 1327-1340, 1994; Gottardi, C. J., J. Cell Biol. 153: 1049-1060, 2001; Klingelhofer, J., et al., Oncogene 22: 1181-1188, 2003). To determine whether Mesd binding to cell surface LRP6 directly regulates Wnt signaling, we studied the effects of Mesd binding on cytosolic β-catenin levels in HT1080-LRP6 cells. […]

LRP5 = LRP5 (Homo sapiens, UniProt O75197); assay: 125I-Mesd binding to HEK293 cells transiently transfected with LRP5; set-up: Plasmid pcDNA3.1C-Myc-hLRP5 containing the full-length human LRP5 cDNA; expressed in transfected cells; host or cells: HEK293 cells, transient transfection; details: 125I-Mesd 5 nM, 4 hours at 4° C.
Sequence of LRP5 (O75197 32-1615): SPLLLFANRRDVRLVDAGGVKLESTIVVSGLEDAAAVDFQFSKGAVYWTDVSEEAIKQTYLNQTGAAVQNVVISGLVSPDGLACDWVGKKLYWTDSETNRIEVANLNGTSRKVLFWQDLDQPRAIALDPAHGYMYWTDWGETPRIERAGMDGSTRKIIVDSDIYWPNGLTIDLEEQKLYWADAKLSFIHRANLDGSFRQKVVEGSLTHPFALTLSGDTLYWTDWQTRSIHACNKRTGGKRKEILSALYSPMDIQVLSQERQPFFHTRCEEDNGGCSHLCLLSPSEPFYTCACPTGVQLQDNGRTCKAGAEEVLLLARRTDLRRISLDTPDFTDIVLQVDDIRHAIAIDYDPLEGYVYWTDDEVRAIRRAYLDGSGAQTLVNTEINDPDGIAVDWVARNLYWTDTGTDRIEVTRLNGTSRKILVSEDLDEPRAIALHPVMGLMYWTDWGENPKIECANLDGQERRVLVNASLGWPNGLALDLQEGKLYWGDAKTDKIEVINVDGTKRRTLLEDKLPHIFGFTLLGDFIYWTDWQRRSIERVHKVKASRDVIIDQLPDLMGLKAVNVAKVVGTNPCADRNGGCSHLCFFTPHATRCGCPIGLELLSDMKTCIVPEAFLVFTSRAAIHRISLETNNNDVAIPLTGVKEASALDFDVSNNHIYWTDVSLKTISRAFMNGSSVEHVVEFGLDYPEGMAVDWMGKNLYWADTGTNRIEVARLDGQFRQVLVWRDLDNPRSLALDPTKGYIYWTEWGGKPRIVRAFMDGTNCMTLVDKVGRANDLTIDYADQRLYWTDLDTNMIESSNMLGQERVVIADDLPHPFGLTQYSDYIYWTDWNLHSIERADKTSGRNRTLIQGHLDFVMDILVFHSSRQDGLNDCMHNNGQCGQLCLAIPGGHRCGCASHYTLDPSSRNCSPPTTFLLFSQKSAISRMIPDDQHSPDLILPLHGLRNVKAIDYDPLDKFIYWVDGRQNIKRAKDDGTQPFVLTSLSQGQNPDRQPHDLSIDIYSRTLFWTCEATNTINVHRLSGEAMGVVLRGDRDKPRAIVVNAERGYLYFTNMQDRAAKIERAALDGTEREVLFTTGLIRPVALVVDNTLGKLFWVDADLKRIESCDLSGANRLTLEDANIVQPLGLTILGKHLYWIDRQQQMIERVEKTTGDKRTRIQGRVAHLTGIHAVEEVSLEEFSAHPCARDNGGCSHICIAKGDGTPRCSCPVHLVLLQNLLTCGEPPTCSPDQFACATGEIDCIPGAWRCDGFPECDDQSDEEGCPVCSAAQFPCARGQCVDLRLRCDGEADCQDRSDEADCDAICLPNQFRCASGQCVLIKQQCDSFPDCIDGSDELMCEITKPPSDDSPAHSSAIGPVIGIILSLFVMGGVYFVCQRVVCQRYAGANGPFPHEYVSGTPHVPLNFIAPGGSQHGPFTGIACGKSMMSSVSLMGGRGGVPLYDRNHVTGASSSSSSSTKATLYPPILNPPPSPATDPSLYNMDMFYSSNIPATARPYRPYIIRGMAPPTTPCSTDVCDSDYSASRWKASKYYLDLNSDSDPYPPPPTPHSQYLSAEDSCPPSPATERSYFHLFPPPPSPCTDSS
Protocol: Cells (2×10^5) were seeded into 12-well dishes 1 day prior to assay. Ligand-binding buffer (minimal Eagle's medium containing 0.6% BSA with a different concentration of radioligand, 0.6 ml/well) was added to cell monolayers, in the absence or the presence of 500 nM unlabeled RAP or 500 nM unlabeled Mesd, followed with incubation for 0-4 hours at 4° C. Thereafter, overlying buffer containing unbound ligand was removed, and cell monolayers were washed and lysed in low-SDS lysis buffer (62.5 mM Tris-HCl pH 6.8, 0.2% SDS, 10% v/glycerol) and counted.
To determine whether Mesd binds to other members of the LDLR family, ^125I-Mesd binding analysis was performed with four groups of cells expressing different members of the LDLR family (FIG. 2). In the first experiment, HEK293 cells were transiently transfected with cDNAs for the LDLR, LRP5, LRP6 or empty pcDNA3 vector. […]

B1: Mesd: Recombinant full-length mouse Mesd expressed in E. coli, N-terminal polyhistidine tail, lacking the signal peptide (protein)
chain: ADTPGEATPPPRKKKDIRDYNDADMARLLEQWEKDDDIEEGDLPEHKRPSAPIDFSKLDPGKPESILKMTKKGKTLMMFVTVSGNPTEKETEEITSLWQGSLFNANYDVQRFIVGSDRAIFMLRDGSYAWEIKDFLVSQDRCAEVTLEGQMYPGKGGGSKEKNKTKPEKAKKKEGDRKPRASKEDNRAGSRREDL
modifications: left off: small tags and cut ends
notes: Recombinant full-length mouse Mesd expressed in E. coli, N-terminal polyhistidine tail, lacking the signal peptide
- Change in cytosolic β-catenin levels (cytosolic β-catenin): no significant change
- Mesd binding to LRP5 (LRP5): specifically binds to Mesd, albeit at lower levels compared to LRP6
